Patent publication US20250057968A1, “ANTI-DLL3 ANTIBODY AND PHARMACEUTICAL USE THEREOF, AND ANTIBODY-DRUG CONJUGATE CONTAINING ANTI-DLL3 ANTIBODY” (Jiangsu Hengrui Pharmaceuticals Co., Ltd., priority 2021, published 2025)

Assays:
RatDLL3/CHO-s = biological target: T1, RatDLL3/CHO-s (Rattus norvegicus, UniProt O88671); assay: Cell-level FACS binding assay, RatDLL3/CHO-s cells
T1 construct: Rat DLL3 full-length protein; expressed in transfected cells; host or cells: CHO-s (Invitrogen, R80007), lentiviral transduction
T1 sequence (O88671 33-589): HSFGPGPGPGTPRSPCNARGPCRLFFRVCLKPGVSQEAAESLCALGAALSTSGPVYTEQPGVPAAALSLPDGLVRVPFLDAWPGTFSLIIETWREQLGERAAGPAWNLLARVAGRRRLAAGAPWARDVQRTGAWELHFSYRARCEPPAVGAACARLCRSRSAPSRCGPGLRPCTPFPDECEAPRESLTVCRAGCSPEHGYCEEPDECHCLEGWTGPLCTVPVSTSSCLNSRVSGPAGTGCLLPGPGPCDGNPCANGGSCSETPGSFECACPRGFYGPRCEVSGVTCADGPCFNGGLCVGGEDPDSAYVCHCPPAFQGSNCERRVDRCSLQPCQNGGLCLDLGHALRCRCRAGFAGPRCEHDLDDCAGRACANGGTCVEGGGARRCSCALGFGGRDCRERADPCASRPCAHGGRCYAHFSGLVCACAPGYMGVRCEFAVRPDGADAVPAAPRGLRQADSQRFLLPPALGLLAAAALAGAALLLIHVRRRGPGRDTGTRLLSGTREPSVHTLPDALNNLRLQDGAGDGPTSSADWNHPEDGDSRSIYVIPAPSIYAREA
Procedure: (§1) Cells of the DLL3-expressing small cell lung cancer cell lines H1184 (ATCC, Cat. No. CRL-5858), DLL3/H82, cynoDLL3/CHO-s, and RatDLL3/CHO-s were suspended at 1×10^6/mL in FACS buffer (1% BSA+pH 7.4 PBS), and the cell suspensions were added to a 96-well round-bottom plate (Corning, 3795) at 100 μL/well. The plate was centrifuged at 300 g for 5 min, and the supernatant was removed. Different concentrations of test antibodies were added at 100 μL/well. The plate was incubated in the dark in a refrigerator at 4° C. for 1 h. After 3 washes by centrifugation at 300 g, working concentrations of APC anti-human IgG Fc (BioLegend, 410712) or PE F(ab′)2-goat anti-human IgG (invitrogen, H10104) were added. The plate was incubated in the dark in a refrigerator at 4° C. for 40 min. After 3 washes by centrifugation at 300 g, the geometric mean fluorescence intensity was measured on an Invitrogen flow cytometer, and the EC50 values of the antibodies in binding to DLL3-expressing cells were calculated. The results are shown in Table 11-1, Table 11-2, Table 11-3, and FIG. 1A to FIG. 1C.

[1] = biological target: T2, Human DLL3 full-length protein on cells (human, UniProt Q9NYJ7 27-618); assay: FACS on H1184 cells
T2 construct: H1184 and DMS53 express DLL3 themselves; The cell line is named under assay; also called H1184 cells; DLL3/H82
T2 sequence: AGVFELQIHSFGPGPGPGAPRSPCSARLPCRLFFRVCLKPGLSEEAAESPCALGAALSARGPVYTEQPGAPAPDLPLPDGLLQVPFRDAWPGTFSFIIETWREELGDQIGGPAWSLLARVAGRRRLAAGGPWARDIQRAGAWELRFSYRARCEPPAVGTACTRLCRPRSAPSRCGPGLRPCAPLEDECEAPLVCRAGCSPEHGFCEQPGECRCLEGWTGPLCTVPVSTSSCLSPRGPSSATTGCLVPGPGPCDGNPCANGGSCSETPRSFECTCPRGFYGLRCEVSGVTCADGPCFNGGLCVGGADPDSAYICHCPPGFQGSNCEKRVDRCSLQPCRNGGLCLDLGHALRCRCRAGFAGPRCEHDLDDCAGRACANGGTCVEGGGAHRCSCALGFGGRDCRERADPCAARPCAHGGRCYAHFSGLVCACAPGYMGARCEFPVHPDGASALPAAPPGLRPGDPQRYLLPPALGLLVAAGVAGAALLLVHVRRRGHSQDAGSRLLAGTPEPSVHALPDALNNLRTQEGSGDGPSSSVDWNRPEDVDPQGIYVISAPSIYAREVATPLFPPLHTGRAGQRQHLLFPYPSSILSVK
Procedure: as §1, with “calculated.” for “calculated. The results are shown in Table 11-1, Table 11-2, Table 11-3, and FIG. 1A to FIG. 1C.”

[2] = biological target: T2, Human DLL3 full-length protein on cells; assay: cell-based or functional assay
[3] = biological target: T3, Rat DLL3 full-length protein on CHO-s cells (rat, UniProt O88671 33-589); assay: FACS on RatDLL3/CHO-s cells
T3 construct: also called RatDLL3/CHO-s; ratDLL3/CHO-s
T3 sequence: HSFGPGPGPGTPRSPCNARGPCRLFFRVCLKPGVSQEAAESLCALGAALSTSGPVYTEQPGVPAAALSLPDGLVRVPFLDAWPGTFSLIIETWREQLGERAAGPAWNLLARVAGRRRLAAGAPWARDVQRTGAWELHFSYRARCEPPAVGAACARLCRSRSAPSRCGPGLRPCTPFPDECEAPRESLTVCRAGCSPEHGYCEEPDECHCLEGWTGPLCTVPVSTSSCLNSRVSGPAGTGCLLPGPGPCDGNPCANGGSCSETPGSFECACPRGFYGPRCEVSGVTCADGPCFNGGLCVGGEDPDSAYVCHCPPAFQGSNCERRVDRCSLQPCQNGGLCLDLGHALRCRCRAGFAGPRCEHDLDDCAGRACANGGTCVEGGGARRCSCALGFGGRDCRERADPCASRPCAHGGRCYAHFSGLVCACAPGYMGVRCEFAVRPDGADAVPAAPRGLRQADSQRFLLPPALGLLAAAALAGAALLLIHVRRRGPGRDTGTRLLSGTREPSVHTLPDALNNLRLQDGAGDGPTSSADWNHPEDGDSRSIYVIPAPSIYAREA
Procedure: as §1, with “calculated.” for “calculated. The results are shown in Table 11-1, Table 11-2, Table 11-3, and FIG. 1A to FIG. 1C.”

[4] = biological target: T4, Cynomolgus monkey DLL3 full-length protein on CHO-s cells (cynomolgus monkey, UniProt Q9NYJ7 27-618 (human entry)); assay: FACS on cynoDLL3/CHO-s cells
T4 construct: also called cynoDLL3/CHO-s
T4 chain: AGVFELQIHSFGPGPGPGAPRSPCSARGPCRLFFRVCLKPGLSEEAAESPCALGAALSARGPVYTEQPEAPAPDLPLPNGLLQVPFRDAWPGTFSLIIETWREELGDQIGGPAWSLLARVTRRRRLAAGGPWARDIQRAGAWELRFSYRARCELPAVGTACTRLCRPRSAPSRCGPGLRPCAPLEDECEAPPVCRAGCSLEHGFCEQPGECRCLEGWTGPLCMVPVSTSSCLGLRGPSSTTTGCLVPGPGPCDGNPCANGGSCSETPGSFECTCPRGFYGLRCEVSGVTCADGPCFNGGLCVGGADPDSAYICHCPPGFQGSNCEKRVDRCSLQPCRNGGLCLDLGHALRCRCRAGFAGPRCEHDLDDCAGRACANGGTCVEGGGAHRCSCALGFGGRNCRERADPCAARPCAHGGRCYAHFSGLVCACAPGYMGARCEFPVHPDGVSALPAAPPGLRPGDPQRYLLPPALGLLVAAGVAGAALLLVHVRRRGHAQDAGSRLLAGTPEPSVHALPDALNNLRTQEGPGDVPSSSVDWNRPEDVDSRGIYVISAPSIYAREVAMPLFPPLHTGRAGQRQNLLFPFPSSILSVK
Procedure: as §1, with “calculated.” for “calculated. The results are shown in Table 11-1, Table 11-2, Table 11-3, and FIG. 1A to FIG. 1C.”

[5] = biological target: T5, hDLL3(ECD)-strep twin, biotinylated (human, UniProt Q9NYJ7 27-492, biotinylated (site not stated)); assay: competition ELISA: BI-764532 coated on the plate (1 µg/mL), biotinylated DLL3-Strep (0.1 µg/mL) with soluble BI-764532 as competitor, streptavidin-peroxidase detection, OD450
T5 construct: also called Biotinylated DLL3 antigen; Biotinylated DLL3-Strep
Procedure: The plate was washed 3 times with 250 μL of PBST solution per well. The plate was blocked with 250 μL of 5% milk per well at 37° C. for 2 h. The plate was washed 3 times with 250 μL of PBST solution per well. […] The plate was washed 6 times with 250 μL of PBST solution per well. […] The plate was washed 6 times with 250 μL of PBST solution per well. TMB (KPL, 5120-0077) substrate solution was added at 100 μL/well, and color development was allowed at room temperature for 5-10 min.

Row | Molecule | binding to cells expressing rat DLL3 (in words) (RatDLL3/CHO-s) | EC50 [1] [nM] | Emax [1] | IC50 (nM), cell killing caused by endocytosis of antibodies (DT3C, DMS53/DLL3 cells) [2] [nM] | Imax, cell killing caused by endocytosis of antibodies (DT3C, DMS53/DLL3 cells) [2] | binding result [3] | EC50 [4] [nM] | Emax [4] | IC50 (read off the curve) [5] [µg/mL]
1 | BI-764532: positive control molecule, constructed by reference to WO2019234220A1; heavy chain SEQ ID NO: 62, light chain SEQ ID NO: 63 [reference compound] | No binding |  |  |  |  |  |  |  | 
2 | BI-764532 (antibody, human IgG1, kappa, V domains shown, also called positive control molecule) VH: QVQLVQSGAEVKKPGASVKVSCKASGYTFTSYYVHWVRQAPGQGLEWMVIINPGGGTTSYAQKFLGRVTMTRDTSTNTVYMELKSLRSEDTAVYYCARGEAVTGNYFYYGMDVWGQGTTVTVSS VL: DIQMTQSPSAMSASVGDRVTITCRASQGISNYLVWFQQKPGKAPKRLIYAVSSLYSGVPSRFSGSGSGTEFTLTISSLQPEDFATYYCLQHDSYPYTFGQGTKLEIKR |  | 3.94 | 1620 | 3.27 | 86.5 | no binding | 3.42 | 963 | ~0.06
